Measured values reported in publication PMC11209852.

Molecular target: GST-fused human AP-2 alpha-C (AP2A2) appendage domain, Ser923Gly (human) (UniProt O94973)
Experiment: pull-down

UniProt O94973, sequence (O94973 whole entry S923G, the tested form may be a part): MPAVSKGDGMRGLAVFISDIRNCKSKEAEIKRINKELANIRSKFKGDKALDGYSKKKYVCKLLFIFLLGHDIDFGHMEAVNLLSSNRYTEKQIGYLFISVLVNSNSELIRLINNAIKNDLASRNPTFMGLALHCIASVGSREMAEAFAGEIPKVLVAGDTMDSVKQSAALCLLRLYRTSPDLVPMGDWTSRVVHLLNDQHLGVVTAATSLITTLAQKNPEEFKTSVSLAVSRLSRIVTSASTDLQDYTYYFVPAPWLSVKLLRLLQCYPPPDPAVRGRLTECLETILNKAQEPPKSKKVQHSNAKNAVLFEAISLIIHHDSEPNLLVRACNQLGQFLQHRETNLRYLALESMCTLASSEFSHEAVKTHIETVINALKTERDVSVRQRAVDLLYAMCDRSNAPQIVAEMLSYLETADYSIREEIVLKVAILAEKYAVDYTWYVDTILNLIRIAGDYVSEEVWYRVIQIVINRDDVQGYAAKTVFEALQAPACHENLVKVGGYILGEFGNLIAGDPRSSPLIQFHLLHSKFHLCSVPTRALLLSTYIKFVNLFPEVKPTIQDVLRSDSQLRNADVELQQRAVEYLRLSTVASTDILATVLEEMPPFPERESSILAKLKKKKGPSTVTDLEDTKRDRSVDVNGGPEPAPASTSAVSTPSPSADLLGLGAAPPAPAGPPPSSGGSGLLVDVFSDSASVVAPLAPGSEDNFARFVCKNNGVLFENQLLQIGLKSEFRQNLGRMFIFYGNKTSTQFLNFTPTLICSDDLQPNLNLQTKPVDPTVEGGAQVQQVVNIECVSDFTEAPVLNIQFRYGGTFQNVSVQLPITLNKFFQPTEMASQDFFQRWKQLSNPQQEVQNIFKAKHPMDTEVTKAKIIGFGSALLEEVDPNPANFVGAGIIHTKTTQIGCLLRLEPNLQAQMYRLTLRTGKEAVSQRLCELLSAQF

Row | percent reduction of pulled-down signal against wildtype AP2A2-ear [%] | Molecule
1 | 20 | amphiphysin (from UniProt P49418 1-695) (natural protein)
2 | 70 | auxilin (natural protein) MKDSENKGASSPDMEPSYGGGLFDMVKGGAGRLFSNLKDNLKDTLKDTSSRVIQSVTSYTKGDLDFTYVTSRIIVMSFPLDNVDIGFRNQVDDIRSFLDSRHLDHYTVYNLSPKSYRTAKFHSRVSECSWPIRQAPSLHNLFAVCRNMYNWLLQNPKNVCVVHCLDGRAASSILVGAMFIFCNLYSTPGPAIRLLYAKRPGIGLSPSHRRYLGYMCDLLADKPYRPHFKPLTIKSITVSPIPFFNKQRNGCRPYCDVLIGETKIYSTCTDFERMKEYRVQDGKIFIPLNITVQGDVVVSMYHLRSTIGSRLQAKVTNTQIFQLQFHTGFIPLDTTVLKFTKPELDACDVPEKYPQLFQVTLDVELQPHDKVIDLTPPWEHYCTKDVNPSILFSSHQEHQDTLALGGQAPIDIPPDNPRHYGQSGFFASLCWQDQKSEKSFCEEDHAALVNQESEQSDDELLTLSSPHGNANGDKPHGVKKPSKKQQEPAAPPPPEDVDLLGLEGSAMSNSFSPPAAPPTNSELLSDLFGGGGAAGPTQAGQSGVEDVFHPSGPASTQSTPRRSATSTSASPTLRVGEGATFDPFGAPSKPSGQDLLGSFLNTSSASSDPFLQPTRSPSPTVHASSTPAVNIQPDVSGGWDWHAKPGGFGMGSKSAATSPTGSSHGTPTHQSKPQTLDPFADLGTLGSSSFASKPTTPTGLGGGFPPLSSPQKASPQPMGGGWQQGGAYNWQQPQPKPQPSMPHSSPQNRPNYNVSFSAMPGGQNERGKGSSNLEGKQKAADFEDLLSGQGFNAHKDKKGPRTIAEMRKEEMAKEMDPEKLKILEWIEGKERNIRALLSTMHTVLWAGETKWKPVGMADLVTPEQVKKVYRKAVLVVHPDKATGQPYEQYAKMIFMELNDAWSEFENQGQKPLY

Second part, the molecule before the results:

Row | Molecule | percent reduction of pulled-down signal against wildtype AP2A2-ear [%]
3 | AP180 (natural protein) MSGQTLTDRIAAAQYSVTGSAVARAVCKATTHEVMGPKKKHLDYLIQATNETNVNIPQMADTLFERATNSSWVVVFKALVTTHHLMVHGNERFIQYLASRNTLFNLSNFLDKSGSHGYDMSTFIRRYSRYLNEKAFSYRQMAFDFARVKKGADGVMRTMAPEKLLKSMPILQGQIDALLEFDVHPNELTNGVINAAFMLLFKDLIKLFACYNDGVINLLEKFFEMKKGQCKDALEIYKRFLTRMTRVSEFLKVAEQVGIDKGDIPDLTQAPSSLMETLEQHLNTLEGKKPGNNEGSGAPSPLSKSSPATTVTSPNSTPAKTIDTSPPVDLFATASAAVPVSTSKPSSDLLDLQPDFSSGGAAAAAAPAPPPPAGGATAWGDLLGEDSLAALSSVPSEAQISDPFAPEPTPPTTTAEIATASASASTTTTVTAVTAEVDLFGDAFAASPGEAPAASEGAAAPATPTPVAAALDACSGNDPFAPSEGSAEAAPELDLFAMKPPETSVPVVTPTASTAPPVPATAPSPAPAVAAAAAATTAATAAATTTTTTSAATATTAPPALDIFGDLFESTPEVAAAPKPDAAPSIDLFSTDAFSSPPQGASPVPESSLTADLLSVDAFAAPSPATTASPAKVDSSGVIDLFGDAFGSSASEPQPASQAASSSSASADLLAGFGGSFMAPSPSPVTPAQNNLLQPNFEAAFGTTPSTSSSSSFDPSVFDGLGDLLMPTMAPAGQPAPVSMVPPSPAMAASKALGSDLDSSLASLVGNLGISGTTTKKGDLQWNAGEKKLTGGANWQPKVAPATWSAGVPPSAPLQGAVPPTSSVPPVAGAPSVGQPGAGFGMPPAGTGMPMMPQQPVMFAQPMMRPPFGAAAVPGTQLSPSPTPASQSPKKPPAKDPLADLNIKDFL | 80
4 | EPS15 (natural protein) MAAAAQLSLTQLSSGNPVYEKYYRQVDTGNTGRVLASDAAAFLKKSGLPDLILGKIWDLADTDGKGILNKQEFFVALRLVACAQNGLEVSLSSLNLAVPPPRFHDTSSPLLISGTSAAELPWAVKPEDKAKYDAIFDSLSPVNGFLSGDKVKPVLLNSKLPVDILGRVWELSDIDHDGMLDRDEFAVAMFLVYCALEKEPVPMSLPPALVPPSKRKTWVVSPAEKAKYDEIFLKTDKDMDGFVSGLEVREIFLKTGLPSTLLAHIWSLCDTKDCGKLSKDQFALAFHLISQKLIKGIDPPHVLTPEMIPPSDRASLQKNIIGSSPVADFSAIKELDTLNNEIVDLQREKNNVEQDLKEKEDTIKQRTSEVQDLQDEVQRENTNLQKLQAQKQQVQELLDELDEQKAQLEEQLKEVRKKCAEEAQLISSLKAELTSQESQISTYEEELAKAREELSRLQQETAELEESVESGKAQLEPLQQHLQDSQQEISSMQMKLMEMKDLENHNSQLNWCSSPHSILVNGATDYCSLSTSSSETANLNEHVEGQSNLESEPIHQESPARSSPELLPSGVTDENEVTTAVTEKVCSELDNNRHSKEEDPFNVDSSSLTGPVADTNLDFFQSDPFVGSDPFKDDPFGKIDPFGGDPFKGSDPFASDCFFRQSTDPFATSSTDPFSAANNSSITSVETLKHNDPFAPGGTVVAASDSATDPFASVFGNESFGGGFADFSTLSKVNNEDPFRSATSSSVSNVVITKNVFEETSVKSEDEPPALPPKIGTPTRPCPLPPGKRSINKLDSPDPFKLNDPFQPFPGNDSPKEKDPEIFCDPFTSATTTTNKEADPSNFANFSAYPSEEDMIEWAKRESEREEEQRLARLNQQEQEDLELAIALSKSEISEA | 30
